Laboratory results: paper doi:10.1101/2022.11.09.515798

Columns and labels:
[1] = target: Hyphochytrium catenoides kalium channelrhodopsin 1 (HcKCR1) (Hyphochytrium catenoides); experiment: cryo-EM structure
[2] = target: Hyphochytrium catenoides kalium channelrhodopsin 2 (HcKCR2) (Hyphochytrium catenoides); experiment: cryo-EM structure

Substance	stoichiometry N [1]	stoichiometry N [2]
Hyphochytrium catenoides kalium channelrhodopsin 1 (HcKCR1) (natural protein)	3	
Hyphochytrium catenoides kalium channelrhodopsin 2 (HcKCR2) (natural protein)		3
